According to the supplement of paper PMC10065799, “High-throughput profiling of sequence recognition by tyrosine kinases and SH2 domains using bacterial peptide display” (eLife, 2023):

biological target: c-Src SH2; assay: SH2 binding enrichment of the phosphorylated peptide, bacterial display (enrichment ratio); higher = better substrate or ligand; peptides without Tyr show the background
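For SH2 binding enrichment of the phosphorylated peptide, bacterial display in this document: peptide library displayed on the E. coli surface as eCPX fusions, selected cells deep-sequenced, score is each peptide's frequency after selection divided by its frequency in the input.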
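For phosphorylation enrichment, bacterial display in this document: 11-residue human phosphosite peptides and single-mutation variants displayed on the E. coli surface, counted by deep sequencing, each peptide's frequency after selection divided by its frequency in the unselected input library; frequency after pTyr selection over input frequency; kinase dosed for 20-30% of maximal phosphorylation in three min.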

| Sequence | SH2 binding enrichment |
| --- | --- |
| ALTDNYMYVVI [HAGH_Y61_L64V] | 0.607 |
| FDGKDYIALKE [HLA-A_Y147_N151K_YF] | 0.499 |
| SAVTGYRVNVI [FN1_Y937_D940N] | 0.505 |
| TLSGTYQYIIA [FOXL2_Y81_I80T] | 1.93 |
| CTNIHYNYMCN [TP53_Y234_T231N] | 5.66 |
| PLTKVYVVEGS [ZMPSTE24_Y253] | 0.529 |
| SDGKRYRVPSD [HHIPL2_Y395_H391D] | 0.57 |
| LFMGDYVGRGY [PPP2CA_Y86_D88G] | 0.536 |
| LFLACYCIGGG [UBD_Y161] | 0.876 |
| FFCRWYRNQKS [EREG_Y144_R147Q_YF] | 0.496 |
| EEQKKYYNAMK [SCN5A_Y1494] | 0.639 |
| YQRITYHNWRH [PDE6B_Y556_R552Q] | 2.5 |
| QLQVFYATRDQ [MIPEP_Y579_L582R] | 0.659 |
| LSRDVYEEDSY [RET_Y900] | 0.978 |
| CTTIHYFFMCN [TP53_Y234_N235Y_YF] | 0.553 |
| GKMSSYAFFVQ [HMGB1_Y16] | 0.982 |
| ETEMLYGSAPR [PRC1_Y464] | 0.437 |

| Sequence | SH2 binding enrichment |
| --- | --- |
| TVEDHYFEGGI [TKT_Y563_YF] | 0.391 |
| GTFVIYVRFSG [FLNB_Y1687_G1691S_YF] | 0.442 |
| PVDTFYDSTRG [DYNC2H1_Y2231_M2227V_YF] | 0.503 |
| GQKVAYGGTED [ALDH3A1_Y305_G309E] | 0.471 |
| SLRAHYDTPRS [DOK7_Y405] | 3.32 |
| GEYYRYLAEVA [YWHAG_Y133_D129E] | 0.669 |
| TVLWWYTGTRP [UGT1A1_Y337_R336W] | 0.752 |
| PGAPAYCVLME [MYO5A_Y1245_R1246C] | 0.883 |
| LGIDRYHAIVF [NPSR1_Y147_S143G_YF] | 1.28 |
| GLSSAYGDLTS [KRT8_Y427_G429D] | 0.608 |
| PVKSEYPSIKL [NPC2_Y119] | 0.68 |
| GQECEYPPTQD [METAP2_Y137] | 0.521 |
| KVPELYEIHTE [BCR_Y554_K558T] | 0.525 |
| IGHHAYGDQFR [IDH1_Y135_R132H_YF] | 0.487 |
| VREIRYQGGNR [VWF_Y1570] | 0.391 |
| TDECEYDELIV [TGM1_Y136_Y134C] | 0.139 |

biological target: Grb2 SH2 (UniProt P62993); assay: as above
Sequence (P62993 whole entry, looked up): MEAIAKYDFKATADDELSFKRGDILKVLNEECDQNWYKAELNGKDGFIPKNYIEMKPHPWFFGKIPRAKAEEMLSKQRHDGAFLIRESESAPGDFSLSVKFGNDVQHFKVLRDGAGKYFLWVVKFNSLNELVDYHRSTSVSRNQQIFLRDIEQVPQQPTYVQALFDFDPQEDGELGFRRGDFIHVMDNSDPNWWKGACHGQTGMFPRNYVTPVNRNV

| Sequence | SH2 binding enrichment |
| --- | --- |
| ALTDNYMYVVI [HAGH_Y61_L64V] | 0.783 |
| FDGKDYIALKE [HLA-A_Y147_N151K_YF] | 0.919 |
| SAVTGYRVNVI [FN1_Y937_D940N] | 0.95 |
| TLSGTYQYIIA [FOXL2_Y81_I80T] | 0.828 |
| CTNIHYNYMCN [TP53_Y234_T231N] | 1.05 |
| PLTKVYVVEGS [ZMPSTE24_Y253] | 0.841 |
| SDGKRYRVPSD [HHIPL2_Y395_H391D] | 0.781 |
| LFMGDYVGRGY [PPP2CA_Y86_D88G] | 0.854 |
| LFLACYCIGGG [UBD_Y161] | 1.02 |
| FFCRWYRNQKS [EREG_Y144_R147Q_YF] | 0.603 |
| EEQKKYYNAMK [SCN5A_Y1494] | 1.25 |
| YQRITYHNWRH [PDE6B_Y556_R552Q] | 1.62 |
| QLQVFYATRDQ [MIPEP_Y579_L582R] | 0.904 |
| LSRDVYEEDSY [RET_Y900] | 0.652 |
| CTTIHYFFMCN [TP53_Y234_N235Y_YF] | 0.894 |
| GKMSSYAFFVQ [HMGB1_Y16] | 1.13 |

| Sequence | SH2 binding enrichment |
| --- | --- |
| ETEMLYGSAPR [PRC1_Y464] | 0.784 |
| TVEDHYFEGGI [TKT_Y563_YF] | 0.814 |
| GTFVIYVRFSG [FLNB_Y1687_G1691S_YF] | 1.15 |
| PVDTFYDSTRG [DYNC2H1_Y2231_M2227V_YF] | 0.661 |
| GQKVAYGGTED [ALDH3A1_Y305_G309E] | 0.788 |
| SLRAHYDTPRS [DOK7_Y405] | 0.712 |
| GEYYRYLAEVA [YWHAG_Y133_D129E] | 0.827 |
| TVLWWYTGTRP [UGT1A1_Y337_R336W] | 1.02 |
| PGAPAYCVLME [MYO5A_Y1245_R1246C] | 0.628 |
| LGIDRYHAIVF [NPSR1_Y147_S143G_YF] | 0.851 |
| GLSSAYGDLTS [KRT8_Y427_G429D] | 0.878 |
| PVKSEYPSIKL [NPC2_Y119] | 0.752 |
| GQECEYPPTQD [METAP2_Y137] | 0.918 |
| KVPELYEIHTE [BCR_Y554_K558T] | 0.969 |
| IGHHAYGDQFR [IDH1_Y135_R132H_YF] | 0.885 |
| VREIRYQGGNR [VWF_Y1570] | 0.539 |

biological target: SHP2-C SH2; assay: as above

| Sequence | SH2 binding enrichment |
| --- | --- |
| ALTDNYMYVVI [HAGH_Y61_L64V] | 0.767 |
| FDGKDYIALKE [HLA-A_Y147_N151K_YF] | 0.677 |
| SAVTGYRVNVI [FN1_Y937_D940N] | 0.823 |
| TLSGTYQYIIA [FOXL2_Y81_I80T] | 1.43 |
| CTNIHYNYMCN [TP53_Y234_T231N] | 1.86 |
| PLTKVYVVEGS [ZMPSTE24_Y253] | 0.743 |
| SDGKRYRVPSD [HHIPL2_Y395_H391D] | 0.608 |
| LFMGDYVGRGY [PPP2CA_Y86_D88G] | 0.596 |
| LFLACYCIGGG [UBD_Y161] | 1.3 |
| FFCRWYRNQKS [EREG_Y144_R147Q_YF] | 0.657 |
| EEQKKYYNAMK [SCN5A_Y1494] | 0.603 |
| YQRITYHNWRH [PDE6B_Y556_R552Q] | 1.68 |
| QLQVFYATRDQ [MIPEP_Y579_L582R] | 1.25 |
| LSRDVYEEDSY [RET_Y900] | 0.726 |
| CTTIHYFFMCN [TP53_Y234_N235Y_YF] | 0.883 |
| GKMSSYAFFVQ [HMGB1_Y16] | 1.51 |
| ETEMLYGSAPR [PRC1_Y464] | 0.686 |

| Sequence | SH2 binding enrichment |
| --- | --- |
| TVEDHYFEGGI [TKT_Y563_YF] | 0.805 |
| GTFVIYVRFSG [FLNB_Y1687_G1691S_YF] | 0.812 |
| PVDTFYDSTRG [DYNC2H1_Y2231_M2227V_YF] | 0.652 |
| GQKVAYGGTED [ALDH3A1_Y305_G309E] | 0.549 |
| SLRAHYDTPRS [DOK7_Y405] | 0.914 |
| GEYYRYLAEVA [YWHAG_Y133_D129E] | 0.848 |
| TVLWWYTGTRP [UGT1A1_Y337_R336W] | 2.08 |
| PGAPAYCVLME [MYO5A_Y1245_R1246C] | 0.549 |
| LGIDRYHAIVF [NPSR1_Y147_S143G_YF] | 0.689 |
| GLSSAYGDLTS [KRT8_Y427_G429D] | 0.655 |
| PVKSEYPSIKL [NPC2_Y119] | 0.592 |
| GQECEYPPTQD [METAP2_Y137] | 0.831 |
| KVPELYEIHTE [BCR_Y554_K558T] | 0.696 |
| IGHHAYGDQFR [IDH1_Y135_R132H_YF] | 0.659 |
| VREIRYQGGNR [VWF_Y1570] | 0.476 |
| TDECEYDELIV [TGM1_Y136_Y134C] | 0.29 |

biological target: EPHB1 (UniProt P54762); assay: phosphorylation enrichment, bacterial display (enrichment ratio); higher = better substrate or ligand; peptides without Tyr show the background
Sequence (P54762 whole entry, looked up): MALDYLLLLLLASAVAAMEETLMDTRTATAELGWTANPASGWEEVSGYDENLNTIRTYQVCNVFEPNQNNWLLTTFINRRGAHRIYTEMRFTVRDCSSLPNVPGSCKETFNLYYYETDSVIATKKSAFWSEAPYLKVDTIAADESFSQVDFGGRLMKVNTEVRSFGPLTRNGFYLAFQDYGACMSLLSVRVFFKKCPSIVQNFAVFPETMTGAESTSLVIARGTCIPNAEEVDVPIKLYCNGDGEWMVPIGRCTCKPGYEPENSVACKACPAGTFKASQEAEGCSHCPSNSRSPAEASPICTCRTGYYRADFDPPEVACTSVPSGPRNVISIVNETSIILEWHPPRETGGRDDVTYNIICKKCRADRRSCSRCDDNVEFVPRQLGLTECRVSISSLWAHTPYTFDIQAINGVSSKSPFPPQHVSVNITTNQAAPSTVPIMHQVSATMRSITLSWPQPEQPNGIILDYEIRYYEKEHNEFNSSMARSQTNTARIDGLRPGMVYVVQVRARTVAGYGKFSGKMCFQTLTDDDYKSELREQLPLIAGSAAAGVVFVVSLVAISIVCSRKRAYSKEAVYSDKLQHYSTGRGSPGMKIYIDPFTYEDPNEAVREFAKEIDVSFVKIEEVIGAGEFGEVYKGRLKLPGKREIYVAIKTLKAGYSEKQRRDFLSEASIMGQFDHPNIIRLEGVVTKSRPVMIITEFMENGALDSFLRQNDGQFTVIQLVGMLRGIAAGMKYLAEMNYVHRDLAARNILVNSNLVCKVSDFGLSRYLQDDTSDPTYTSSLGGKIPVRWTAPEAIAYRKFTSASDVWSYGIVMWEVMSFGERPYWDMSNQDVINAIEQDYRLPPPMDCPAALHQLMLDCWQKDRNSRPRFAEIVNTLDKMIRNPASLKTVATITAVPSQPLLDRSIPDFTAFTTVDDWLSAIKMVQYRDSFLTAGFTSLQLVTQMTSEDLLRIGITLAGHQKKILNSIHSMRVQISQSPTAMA

| Sequence | phosphorylation enrichment |
| --- | --- |
| ALTDNYMYVVI [HAGH_Y61_L64V] | 12.9 |
| FDGKDYIALKE [HLA-A_Y147_N151K_YF] | 0.407 |
| SAVTGYRVNVI [FN1_Y937_D940N] | 0.407 |
| TLSGTYQYIIA [FOXL2_Y81_I80T] | 5.25 |
| CTNIHYNYMCN [TP53_Y234_T231N] | 0.734 |
| PLTKVYVVEGS [ZMPSTE24_Y253] | 0.487 |
| SDGKRYRVPSD [HHIPL2_Y395_H391D] | 0.357 |
| LFMGDYVGRGY [PPP2CA_Y86_D88G] | 2.15 |
| LFLACYCIGGG [UBD_Y161] | 0.803 |
| FFCRWYRNQKS [EREG_Y144_R147Q_YF] | 0.493 |
| EEQKKYYNAMK [SCN5A_Y1494] | 0.451 |
| YQRITYHNWRH [PDE6B_Y556_R552Q] | 0.386 |
| QLQVFYATRDQ [MIPEP_Y579_L582R] | 0.787 |
| LSRDVYEEDSY [RET_Y900] | 0.535 |
| CTTIHYFFMCN [TP53_Y234_N235Y_YF] | 0.515 |
| GKMSSYAFFVQ [HMGB1_Y16] | 0.809 |
| ETEMLYGSAPR [PRC1_Y464] | 0.433 |

| Sequence | phosphorylation enrichment |
| --- | --- |
| TVEDHYFEGGI [TKT_Y563_YF] | 0.726 |
| GTFVIYVRFSG [FLNB_Y1687_G1691S_YF] | 0.572 |
| PVDTFYDSTRG [DYNC2H1_Y2231_M2227V_YF] | 0.638 |
| GQKVAYGGTED [ALDH3A1_Y305_G309E] | 0.424 |
| SLRAHYDTPRS [DOK7_Y405] | 0.392 |
| GEYYRYLAEVA [YWHAG_Y133_D129E] | 1.13 |
| TVLWWYTGTRP [UGT1A1_Y337_R336W] | 0.458 |
| PGAPAYCVLME [MYO5A_Y1245_R1246C] | 3.07 |
| LGIDRYHAIVF [NPSR1_Y147_S143G_YF] | 1.22 |
| GLSSAYGDLTS [KRT8_Y427_G429D] | 0.56 |
| PVKSEYPSIKL [NPC2_Y119] | 0.358 |
| GQECEYPPTQD [METAP2_Y137] | 0.866 |
| KVPELYEIHTE [BCR_Y554_K558T] | 0.94 |
| IGHHAYGDQFR [IDH1_Y135_R132H_YF] | 0.444 |
| VREIRYQGGNR [VWF_Y1570] | 0.329 |
| TDECEYDELIV [TGM1_Y136_Y134C] | 1.09 |
